Holding throughout (experiment): rNET
Test [1] has as its target T1, … analog, Residue 5 = G.
T1 peptide: DAEFGHDSGY
Procedure: (§1) The rNET epitope map assay provides information about the contribution of individual residues within the epitope to the overall binding activity of the antibody. rNET analysis uses synthesized systematic single substituted peptide analogs. Binding of an antibody being tested is determined against native peptide (native antigen) and against 19 alternative “single substituted” peptides, each peptide being substituted at a first position with one of 19 non-native amino acids for that position. A profile is generated reflecting the effect of substitution at that position with the various non-native residues. Profiles are likewise generated at successive positions along the antigenic peptide. The combined profile, or epitope map, (reflecting substitution at each position with all 19 non-native residues) can then be compared to a map similarly generated for a second antibody.
(§2) Antibodies were tested for binding against the native Aβ peptide [sequence] […] Residues 1-8 were systematically substituted with each of the 19 non-native residues for that position.

The target in test [2] is T2, … analog, Residue 8 = D.
T2 peptide: DAEFRHDDGY
Procedure: as §1, §2

Test [3] addresses T3, … analog, Residue 8 = E.
T3 peptide: DAEFRHDEGY
Procedure: as §1, §2

Test [4] deals with T4, … analog, Residue 8 = G.
T4 peptide: DAEFRHDGGY
Procedure: as §1, §2

Test [5] deals with T5, … analog, Residue 8 = M.
T5 peptide: DAEFRHDMGY
Procedure: as §1, §2

The target in test [6] is T6, … analog, Residue 8 = W.
T6 peptide: DAEFRHDWGY
Procedure: as §1, §2

In test [7] the target is T7, … analog, Residue 1 = T.
T7 peptide: TAEFRHDSGY
Procedure: as §1, §2

For test [8], the target named is T8, … analog, Residue 2 = D.
T8 peptide: DDEFRHDSGY
Procedure: as §1, §2

The target of test [9] is T9, … analog, Residue 2 = I.
T9 peptide: DIEFRHDSGY
Procedure: as §1, §2

Test [10] addresses T10, … analog, Residue 2 = Q.
T10 peptide: DQEFRHDSGY
Procedure: as §1, §2

Test [11] addresses T11, … analog, Residue 2 = S.
T11 peptide: DSEFRHDSGY
Procedure: as §1, §2

The target of test [12] is T12, … analog, Residue 2 = V.
T12 peptide: DVEFRHDSGY
Procedure: as §1, §2

The target in test [13] is T13, … analog, Residue 3 = D.
T13 peptide: DADFRHDSGY
Procedure: as §1, §2

Test [14] addresses T14, … analog, Residue 3 = G.
T14 peptide: DAGFRHDSGY
Procedure: as §1, §2

Test [15] concerns the target T15, … analog, Residue 3 = L.
T15 peptide: DALFRHDSGY
Procedure: as §1, §2

Test [16] has as its target T16, … analog, Residue 3 = M.
T16 peptide: DAMFRHDSGY
Procedure: as §1, §2

Test [17] deals with T17, … analog, Residue 3 = S.
T17 peptide: DASFRHDSGY
Procedure: as §1, §2

Test [18] concerns the target T18, … analog, Residue 3 = W.
T18 peptide: DAWFRHDSGY
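Also: antibody binding measured against single-substituted peptide analogs, each epitope position replaced by every one of 19 non-native amino acids, compared with binding to the native Aβ peptide.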
Procedure: as §1, §2

B1: murine monoclonal antibody 3D6 (antibody, mouse IgG2b, V domains shown)
VH: EVKLVESGGGLVKPGASLKLSCAASGFTFSNYGMSWVRQNSDKRLEWVASIRSGGGRTYYSDNVKGRFTISRENAKNTLYLQMSSLKSEDTALYYCVRYDHYSGSSDYWGQGTTVTVSS
VL: not shown
notes: also called mAb 3D6; m3D6
Take B1: the OD in test [1] came out at 0.485 OD; in test [2], 0.586 OD; in test [3] it was 0.601 OD; in [4], 0.569 OD; in test [5], 0.571 OD; in test [6], 0.567 OD. In addition, the OD turned out to be 0.45 OD in [7]; 0.119 OD in [8]; 0.522 OD in test [9]; 0.567 OD in [10]; 0.587 OD in [11]; 0.55 OD in test [12]. Besides, the OD worked out at 0.019 OD in [13]; 0.016 OD in test [14]; 0.019 OD in test [15]; 0.019 OD in [16]; 0.016 OD in [17]; 0.149 OD in test [18].

The record behind these values is US20040087777A1 (NEURALAB, published 2004).
